Patent US11813311B2, “Treatment and prevention of metabolic diseases” (Singapore Health Services PTE LTD., priority 2019, dated 2023)

Experiments:
[1] = tested on: rheumatoid synovial cells; conditions: cited from earlier work
[2] = tested on: IL-11 mediated signalling; conditions: cited from earlier work
[3] = tested on: HFMCD-fed mice; experiment: Hepatocyte-specific sgp130 expression in HFMCD-fed mice; assay type: in vivo, mouse
Method: (§1) Three weeks prior to starting either the WDF and HFMCD diet, mice were injected with an AAV8 virus encoding either albumin promoter-driven sgp130 (AAV8-Alb-sgp130), which contains the whole extracellular domain of mouse gp130 protein (amino acid 1 to 617), or albumin promoter alone (AAV8-Alb-Null) (FIGS. 35A, 41A, and 42A). AAV8-Alb-sgp130 administration induced high levels of sgp130 in the liver, which was also detectable in the peripheral circulation, suitable for both local and systemic inhibition of putative IL6 or IL11 trans-signaling (FIGS. 35B, 41B, 42B-42C).
6-8 weeks old C57BL/6N, Il11ra1−/− mice, and Il11ra1loxP/loxP and their respective control were fed with methionine- and choline-deficient diet supplemented with 60 kcal % fat (HFMCD, A06071301B16, Research Diets) for 4 weeks. Control mice received normal chow (NC, Specialty Feeds).
(§2) 6-8-week old male C57BL/6N mice (InVivos) were injected with 4×10^11 gc AAV8-Alb-sgp130 virus to induce hepatocyte specific expression of soluble gp130; control mice were injected with 4×10^11 gc AAV8-Alb-Null virus. 3 weeks following virus administration, mice were fed with HFMCD, WDF, or NC for durations that are described.

[4] = tested on: primary human hepatocytes; experiment: Stimulation of primary human hepatocytes with IL11, hyperIL11, hyperIL6; assay type: cell-based
Method: Human hepatocytes (5200, ScienCell) were grown and maintained in hepatocyte media (5201, ScienCell) supplemented with 2% fetal bovine serum (FBS) and 1% Penicillin-streptomycin.
Primary human hepatocytes (5200, ScienCell) were maintained in hepatocyte medium ([…], ScienCell) supplemented with 2% fetal bovine serum, 1% Penicillin-streptomycin at 37° C. and 5% CO2. Hepatocytes (P2-P3) were serum-starved overnight unless otherwise specified in the methods prior to 24 hours stimulation with different doses of various recombinant proteins as described.
For surface IL11RA, IL6R, and gp130 analysis, primary human hepatocytes and THP-1 cells were stained with IL11RA, IL6R, or gp130 antibody and the corresponding Alexa Fluor 488 secondary antibody. Cell death analysis was performed by staining primary human hepatocytes with Dead Cell Apoptosis Kit with Annexin V FITC and PI (V13242, Thermo Fisher). PI+ve cells were then quantified with the flow cytometer (Fortessa, BD Biosciences) and analyzed with FlowJo version X software (TreeStar).
Alanine Aminotransferase (ALT) activity in the cell culture supernatant and mouse serum was measured using ALT Activity Assay Kit (ab105134, Abcam). Liver Glutathione (GSH) levels were measured using Glutathione Colorimetric Detection Kit (EIAGSHC, Thermo Fisher). Total hydroxyproline content in mouse livers was measured using Quickzyme Total Collagen assay kit (QZBtotco15, Quickzyme Biosciences). The levels of serum and liver triglycerides were measured using Triglyceride Assay Kit (ab65336, Abcam). Mouse serum levels of Aspartate Aminotransferase (AST) and cholesterol were measured using AST Assay Kit (ab105135, Abcam) and Cholesterol Assay Kit (ab65390; Abcam), respectively. All colorimetric assays were performed according to the manufacturer's protocol.
(§3) Western blots were carried out on total protein extracts from hepatocytes and liver tissues. Hepatocyte and liver tissue lysates were homogenized in RIPA Lysis and Extraction Buffer (89901, Thermo Scientific) containing protease and phosphatase inhibitors (Roche). Protein lysates were separated by SDS-PAGE and transferred to PVDF membranes. Protein bands were visualized using the ECL detection system (Pierce) with the appropriate secondary antibodies: anti-rabbit HRP or anti-mouse HRP.

[5] = tested on: WDF-fed mice; experiment: Hepatocyte-specific sgp130 expression in WDF-fed mice; assay type: in vivo, mouse
Method: as §1
6-8 weeks old C57BL/6N, Il11ra1−/− mice, and Il11ra1loxP/loxP and their respective control were fed western diet (D12079B, Research Diets) supplemented with 15% weight/volume fructose in drinking water (WDF) for 16 weeks. Control mice received NC and tap water.
as §2

[6] = tested on: primary human hepatocytes; experiment: Palmitate loading (lipotoxicity) of primary human hepatocytes; assay type: cell-based
Method: Palmitate:BSA conjugated solution in the ratio of 6:1 was prepared as described earlier (Alsabeeh et al., 2018). Palmitate (0.5 mM) conjugated in fatty acids free BSA was used to treated cells as described in figure legends; 0.5% BSA solution was used as control. […]
Primary human hepatocytes were seeded on 8-well chamber slides (1×10^4 cells/well). For this experiment, cells were not serum-starved prior to palmitate treatment. 24 hours following palmitate stimulation, cells were washed, incubated with 25 μM of DCFDA solution (ab113851, Abcam) for 45 minutes at 37° C. in the dark, and rinsed with dilution buffer according to the manufacturer's protocol. Live cells with positive DCF staining were imaged with filter set appropriate for fluorescein (FITC) using a fluorescence microscope (Leica). […]
as §3

## COc1ccc2c(c1)c(CC(=O)O)c(C)n2C(=O)c1ccc(Cl)cc1 [indomethacin, reference compound]
[1]
  expression of IL-11: reduction in the expression of IL-11

B1: sIL-11R: soluble murine IL-11 receptor alpha chain (Curtis et al.) (protein, UniProt Q64385 24-372, looked up)
extracellular domain: SPCPQAWGPPGVQYGQPGRPVMLCCPGVSAGTPVSWFRDGDSRLLQGPDSGLGHRLVLAQVDSPDEGTYVCQTLDGVSGGMVTLKLGFPPARPEVSCQAVDYENFSCTWSPGQVSGLPTRYLTSYRKKTLPGAESQRESPSTGPWPCPQDPLEASRCVVHGAEFWSEYRINVTEVNPLGASTCLLDVRLQSILRPDPPQGLRVESVPGYPRRLHASWTYPASWRRQPHFLLKFRLQYRPAQHPAWSTVEPIGLEEVITDAVAGLPHAVRVSARDFLDAGTWSAWSPEAWGTPSTGPLQDEIPDWSQGHGQQLEAVVAQEDSPAPARPSLQPDPRPLDHRDPLEQVAVLA
modifications: extracellular domain
[2]
  antagonism of IL-11 mediated signalling: capable of antagonizing the activity of IL-11

B2: W147A: IL-11 antagonist mutein, amino acid 147 mutated from tryptophan to alanine (protein, UniProt P20809 22-199, looked up, variant W147A)
Interleukin-11: PGPPPGPPRVSPDPRAELDSTVLLTRSLLADTRQLAAQLRDKFPADGDHNLDSLPTLAMSAGALGALQLPGVLTRLRADLLSYLRHVQWLRRAGGSSLKTLEPELGTLQARLDRLLRRLQLLMSRLALPQPPPDPPAPPLAPPSSAAGGIRAAHAILGGLHLTLDWAVRGLLLLKTRL
[2]
  antagonism of IL-11 mediated signalling: efficient blockade of IL-11 signalling

B3: interferon-gamma: interferon-gamma (IFNγ) (protein, UniProt P01579 24-161, looked up)
Interferon gamma: QDPYVKEAENLKKYFNAGHSDVADNGTLFLGILKNWKEESDRKIMQSQIVSFYFKLFKNFKDDQSIQKSVETIKEDMNVKFFNSNKKKRDDFEKLTNYSVTDLNVQRKAIHELIQVMAELSPAAKTGKRKRSQMLFRG
[1]
  expression of IL-11: reduction in the expression of IL-11

B4: sgp130: Soluble gp130, inhibitor of trans-signaling; human sgp130 Fc in vitro, mouse sgp130 expressed from AAV8-Alb-sgp130 in vivo (protein)
chain: ELLDPCGYISPESPVVQLHSNFTAVCVLKEKCMDYFHVNANYIVWKTNHFTIPKEQYTIINRTASSVTFTDIASLNIQLTCNILTFGQLEQNVYGITIISGLPPEKPKNLSCIVNEGKKMRCEWDGGRETHLETNFTLKSEWATHKFADCKAKRDTPTSCTVDYSTVYFVNIEVWVEAENALGKVTSDHINFDPVYKVKPNPPHNLSVINSEELSSILKLTWTNPSIKSVIILKYNIQYRTKDASTWSQIPPEDTASTRSSFTVQDLKPFTEYVFRIRCMKEDGKGYWSDWSEEASGITYEDRPSKAPSFWYKIDPSHTQGYRTVQLVWKTLPPFEANGKILDYEVTLTRWKSHLQNYTVNATKLTVNLTNDRYLATLTVRNLVGKSDAAVLTIPACDFQATHPVMDLKAFPKDNMLWVEWTTPRESVKKYILEWCVLSDKAPCITDWQQEDGTVHRTYLRGNLAESKCYLITVTPVYADGPGSPESIKAYLKQAPPSKGPTVRTKKVGKNEAVLEWDQLPVDVQNGFIRNYTIFYRTIIGNETAVNVDSSHTEYTLSSLTSDTLYMVRMAAYTDEGGKDGPEFTFTTPKFAQGEIE
modifications: left off: a dimerising Fc or GST
notes: human sgp130 Fc in vitro, mouse sgp130 expressed from AAV8-Alb-sgp130 in vivo
[3]; HFMCD
  diet-induced signaling events: no effect
[3]; HFMCD 4 weeks
  HFMCD-induced liver fibrosis: unchanged
  expression of inflammation and fibrosis genes: unaffected
  hepatocyte damage markers (ALT and AST) and GSH: irrespective of sgp130 expression
  steatosis: unaltered
[4]; IL11 20 ng/ml, sgp130 or sIL11RA 1 μg/ml
  IL11-induced hepatocyte death and signaling: unaffected
[4]; increasing doses of sgp130 or sIL11RA
  ALT release from IL11-stimulated hepatocytes: no effect
[4]; sgp130 added
  activation of signaling downstream of hyperIL6 (p-STAT3): blocked
  activation of signaling downstream of hyperIL11 (p-ERK/p-JNK): blocked
  hepatotoxic effects of hyperIL11: inhibited
[4]; sgp130 or sIL11RA 1 μg/ml
  IL11 dose-dependent hepatocyte cell death on addition of decoy: unaffected
[5]; 16 weeks of WDF
  ALT, AST, collagen, fasting blood glucose, serum triglycerides, serum cholesterol, GSH: none of these parameters were affected
  expression of pro-inflammatory and fibrosis genes: unaffected
  obesity, liver mass and steatosis phenotypes: unaffected
[5]; WDF
  diet-induced signaling events: no effect
[6]; Western blot
  palmitate-induced signaling events: no effect
[6]; X209 2 μg/ml or sgp130 1 μg/ml
  secretion of cytokines (IL11, IL6, CCL2, CCL5): no effect
